Measured values reported in article PMC8904830, “Differential recognition of canonical NF-κB dimers by Importin α3” (Nature Communications, 2022).

B2: NF-κB p65 (residues 1-306) (domain or fragment, human, UniProt Q04206 1-306, looked up)
chain: MDELFPLIFPAEPAQASGPYVEIIEQPKQRGMRFRYKCEGRSAGSIPGERSTDTTKTHPTIKINGYTGPGTVRISLVTKDPPHRPHPHELVGKDCRDGFYEAELCPDRCIHSFQNLGIQCVKKRDLEQAISQRIQTNNNPFQVPIEEQRGDYDLNAVRLCFQVTVRDPSGRPLRLPPVLSHPIFDNRAPNTAELKICRVNRNSGSCLGGDEIFLLCDKVQKEDIEVYFTGPGWEARGSFSQADVHRQVAIVFRTPPYADPSLQAPVRVSMQLRRPSDRELSEPMEFQYLPDTDDRHRIEEKRKRTY
notes: NF-κB p65 (RelA), human, residues 1-306 (Rel homology region with the C-terminal NLS), untagged; also called RelA; p65 RHR; source: E. coli BL21 DE3, purified (polyethyleneimine and ammonium sulfate precipitation, HiTrap SP, Superdex 200)
B3: NF-κB p50 (residues 1-366) (domain or fragment, human, UniProt P19838 1-366, looked up)
chain: MAEDDPYLGRPEQMFHLDPSLTHTIFNPEVFQPQMALPTDGPYLQILEQPKQRGFRFRYVCEGPSHGGLPGASSEKNKKSYPQVKICNYVGPAKVIVQLVTNGKNIHLHAHSLVGKHCEDGICTVTAGPKDMVVGFANLGILHVTKKKVFETLEARMTEACIRGYNPGLLVHPDLAYLQAEGGGDRQLGDREKELIRQAALQQTKEMDLSVVRLMFTAFLPDSTGSFTRRLEPVVSDAIYDSKAPNASNLKIVRMDRTAGCVTGGEEIYLLCDKVQKDDIQIRFYEEEENGGVWEGFGDFSPTDVHRQFAIVFKTPKYKDINITKPASVFVQLRRKSDLETSEPKPFLYYPEIKDKEEVQRKRQKL
notes: NF-κB p50, human, residues 1-366 (Rel homology region with the C-terminal NLS); also called p50 RHR; source: E. coli BL21 DE3, purified (Glutathione Resin, PreScission cleavage, Superdex 200)
B6: ΔNLS-p50 (residues 41-351) (domain or fragment, human, UniProt P19838 41-351, looked up)
chain: GPYLQILEQPKQRGFRFRYVCEGPSHGGLPGASSEKNKKSYPQVKICNYVGPAKVIVQLVTNGKNIHLHAHSLVGKHCEDGICTVTAGPKDMVVGFANLGILHVTKKKVFETLEARMTEACIRGYNPGLLVHPDLAYLQAEGGGDRQLGDREKELIRQAALQQTKEMDLSVVRLMFTAFLPDSTGSFTRRLEPVVSDAIYDSKAPNASNLKIVRMDRTAGCVTGGEEIYLLCDKVQKDDIQIRFYEEEENGGVWEGFGDFSPTDVHRQFAIVFKTPKYKDINITKPASVFVQLRRKSDLETSEPKPFLYYP
notes: NF-κB p50, human, residues 41-351, lacking the C-terminal NLS, untagged; also called p50-ΔNLS; source: E. coli BL21 DE3, purified (polyethyleneimine and ammonium sulfate precipitation, HiTrap SP, Superdex 200)

Experiments:
[1] = molecular target: NF-κB p65/p65 homodimer (human) (UniProt Q04206); test: ELISA; NF-κB hetero/homodimers (200 ng) coated on MaxiSorp plates; His-importin α 1000 to 0 nM in PBST, room temperature 1 h; anti-6xHis-HRP; one-site specific binding fit
[2] = molecular target: NF-κB p50/p50 homodimer (human) (UniProt P19838); test: as above
[3] = molecular target: T1, NF-κB p50/p65 heterodimer (human, UniProt P19838 1-366; Q04206 1-306); test: as above
T1 construct: NF-κB p50, human, residues 1-366; NF-κB p65 (RelA), human, residues 1-306, untagged; also called wild-type NF-κB; source: subunits from E. coli BL21 DE3, purified; assembled by incubating p50:p65 at 1:1.5 molar ratio; copies: 1 + 1

[4] = molecular target: p50/ΔNLS-p65 heterodimer (human) (UniProt P19838); test: as above
[5] = molecular target: ΔIBB-importin α3 (tag not told for these experiments) (human) (UniProt O00629); test: native gel or EMSA; increasing molar excess of pre-assembled p50/p65 added to a fixed 10 μg (~108 pmoles) of ΔIBB-importin α1 or α3; 1.5% agarose gel, 4 °C, 2 h at 50 V, Coomassie
Chain of ΔIBB-importin α3 (tag not told for these experiments) (human) (O00629 68-487, stated change not applied): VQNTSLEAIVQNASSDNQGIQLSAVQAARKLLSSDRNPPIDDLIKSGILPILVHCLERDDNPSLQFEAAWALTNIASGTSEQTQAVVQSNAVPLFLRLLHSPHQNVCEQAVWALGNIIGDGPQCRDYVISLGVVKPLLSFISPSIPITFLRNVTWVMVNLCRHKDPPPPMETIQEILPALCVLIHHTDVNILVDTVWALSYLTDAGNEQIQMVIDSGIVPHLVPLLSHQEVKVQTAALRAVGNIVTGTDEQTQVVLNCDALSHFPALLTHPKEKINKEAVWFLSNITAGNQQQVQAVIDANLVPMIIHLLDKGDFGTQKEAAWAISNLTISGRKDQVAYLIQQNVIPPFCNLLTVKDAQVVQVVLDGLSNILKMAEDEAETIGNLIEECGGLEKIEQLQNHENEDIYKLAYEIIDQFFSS

[6] = molecular target: ΔIBB-importin α1 (tag not told for this experiment) (human) (UniProt P52292); test: as above
[7] = molecular target: NF-κB p65/p65 homodimer (human) (UniProt Q04206); test: SEC-SAXS; pre-assembled NF-κB dimer:ΔIBB-importin α3 complexes at 4.5-6.6 mg/ml on Superdex 200 10/300 GL; 20 mM Tris-HCl pH 7.0-7.5, 0.15-0.175 M NaCl, glycerol, 0.5 mM TCEP, 4 °C; mass from volume of correlation
[8] = molecular target: NF-κB p50/p50 homodimer (human) (UniProt P19838); test: as above
[9] = molecular target: T1, NF-κB p50/p65 heterodimer; test: as above
[10] = molecular target: ΔDBD-p50/p65 heterodimer (human) (UniProt P19838); test: SEC; trimeric complex assembled from purified ΔIBB-importin α3 and ΔDBD-p50/p65; peak fraction analysed by SDS-PAGE and native agarose gel
[11] = molecular target: T1, NF-κB p50/p65 heterodimer; test: native gel or EMSA; purified IκBα titrated against ~130 pmoles of pre-formed p50/p65 (Fig. 4a lanes 5-10); 1 h at 4 °C; 1.5% agarose gel; settings: both partners purified
[12] = molecular target: B6; test: assembly of heterodimers by co-incubation; purified p50 and p65 constructs incubated at 1:1.5 p50:p65 molar ratio, 25 °C 30 min, 37 °C 1 h, centrifuged at 12,000 x g; settings: both partners purified
[13] = molecular target: B3; test: as above; settings: both partners purified
[14] = molecular target: the molecule itself; test: SEC; homodimeric NF-κB complexes concentrated and injected on Superdex 200 16/60 in 20 mM Tris-HCl pH 7.5, 150 mM NaCl, 5 mM β-mercaptoethanol, 2% glycerol
[15] = molecular target: B2; test: assembly of heterodimers by co-incubation; purified p50 and p65 constructs incubated at 1:1.5 p50:p65 molar ratio, 25 °C 30 min, 37 °C 1 h, centrifuged at 12,000 x g; settings: both partners purified

Work on “His-ΔIBB-importin α3 (from UniProt O00629 68-487) (domain or fragment)” yielded a Kd [1] of 35.2 nM, a Kd [2] of 15.4 nM and a Kd [3] of 45.8 nM. It also gave a Kd [4] of 59.6 nM.

“NF-κB p50/p65 heterodimer (from UniProt P19838 1-366; Q04206 1-306) (complex)” gave a stoichiometry N [5] of 1 and a stoichiometry N [6] of 1.

Molecule “ΔIBB-importin α3 (tag not told for these experiments) (from UniProt O00629 68-487) (domain or fragment)” has a stoichiometry N [7] of 1, a stoichiometry N [8] of 2 and a stoichiometry N [9] of 1. The stoichiometry N [10] was 1.

B1: IκBα (residues 67-287) (domain or fragment, UniProt P25963 67-287, looked up)
chain: KQQLTEDGDSFLHLAIIHEEKALTMEVIRQVKGDLAFLNFQNNLQQTPLHLAVITNQPEIAEALLGAGCDPELRDFRGNTPLHLACEQGCLASVGVLTQSCTTPHLHSILKATNYNGHTCLHLASIHGYLGIVELLVSLGADVNAQEPCNGRTALHLAVDLQNPDLVSLLLKCGADVNRVTYQGYSPYQLTWGRPSTRIQQQLGQLTLENLQMLPESEDEE
notes: IκBα, residues 67-287, untagged; source: recombinant, expressed and purified as previously described (pET-11a)
With B1 the “stoichiometry N” value [11] was 1.

B2: binds [12]; binds [13]; binds [14].

B3: binds [14].

B4: ΔDBD-p50 (residues 243-366) (domain or fragment, human, UniProt P19838 243-366, looked up)
chain: KAPNASNLKIVRMDRTAGCVTGGEEIYLLCDKVQKDDIQIRFYEEEENGGVWEGFGDFSPTDVHRQFAIVFKTPKYKDINITKPASVFVQLRRKSDLETSEPKPFLYYPEIKDKEEVQRKRQKL
notes: also called p50 dimerization domain; source: E. coli BL21 DE3, purified (Glutathione Resin, PreScission cleavage, Superdex 200)
B4: binds [15]; binds [14].

B5: ΔNLS-p65 (residues 1-290) (domain or fragment, human, UniProt Q04206 1-290, looked up)
chain: MDELFPLIFPAEPAQASGPYVEIIEQPKQRGMRFRYKCEGRSAGSIPGERSTDTTKTHPTIKINGYTGPGTVRISLVTKDPPHRPHPHELVGKDCRDGFYEAELCPDRCIHSFQNLGIQCVKKRDLEQAISQRIQTNNNPFQVPIEEQRGDYDLNAVRLCFQVTVRDPSGRPLRLPPVLSHPIFDNRAPNTAELKICRVNRNSGSCLGGDEIFLLCDKVQKEDIEVYFTGPGWEARGSFSQADVHRQVAIVFRTPPYADPSLQAPVRVSMQLRRPSDRELSEPMEFQYLP
notes: NF-κB p65 (RelA), human, residues 1-290 (stop codon at position D291), lacking the C-terminal NLS, untagged; source: E. coli BL21 DE3, purified (polyethyleneimine and ammonium sulfate precipitation, HiTrap SP, Superdex 200)
B5: binds [12]; binds [13]; binds [14].

B6: binds [14].

B7: ΔDBD-p65 (residues 191-316) (domain or fragment, human, UniProt Q04206 191-316, looked up)
chain: TAELKICRVNRNSGSCLGGDEIFLLCDKVQKEDIEVYFTGPGWEARGSFSQADVHRQVAIVFRTPPYADPSLQAPVRVSMQLRRPSDRELSEPMEFQYLPDTDDRHRIEEKRKRTYETFKSIMKKS
notes: also called p65 dimerization domain; source: E. coli BL21 DE3, purified (Glutathione Resin, PreScission cleavage, Superdex 200)
B7: binds [14].
